Laboratory results published in the supplement of paper PMC10126150.
± gives the standard deviation of the averaged measurements.

System: ATP
Experiment: switch fluorescence ratio, 500 uM ATP over buffer (Cy3 cluster intensity, sum of 5 cycles each) (fold (ratio)); higher = stronger signal-on switching upon ATP binding; sequences stand for … in TCGTCGGCAGCGTCAGATGTGTATAAGAGACAGTTTTTTTTTTTTTTTTTTTTTTTTT…TC
Conditions: aptamer strand: ATP DNA aptamer (quencher-CACCTGGGGGAGTATTGCGGAGGAAGG + anchor), 100 nM annealed; ATP concentration: 500 uM
Method in brief: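 Imaging in selection buffer was followed by imaging after 15 min with 500 uM ATP at 22 °C, for Cy3-labelled switching-strand clusters annealed to 100 nM quencher-labelled ATP aptamer on a modified Illumina MiSeq flow-cell. Five of these buffer/ATP cycles ran, separated by NaOH stripping and re-annealing. The fluorescence ratio per cluster is summed target-cycle over summed buffer-cycle Cy3 intensity, averaged per switch-domain sequence; clusters outside 100-1000 RFU were removed.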
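Note: ATP exposure 15 min at 22 °C before imaging.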

| Sequence | switch fluorescence ratio |
| --- | --- |
| GCAGTATTTT | 1.0075 ± 0.00081 |
| GCAGTCTGGT | 0.98106 ± 0.00091 |
| GCAGTCTTTG | 0.9936 ± 0.0046 |
| GCAGTGTGCT | 0.982 ± 0.031 |
| GCAGTTTGGA | 0.989 ± 0.015 |
| GCAGTTTGGT | 0.9978 ± 0.0039 |
| GCAGTTTTA | 1 ± 0.014 |
| GCATAAAGGG | 0.989 ± 0.019 |
| GCATAATTTT | 1.01 ± 0.028 |
| GCATACAGGA | 1.02 ± 0.024 |
| GCATATTAGG | 0.999 ± 0.03 |
| GCATCCGTCG | 1.04 ± 0.031 |
| GCATGATTTA | 1 ± 0.051 |
| GCATGCTTAA | 0.9876 ± 0.006 |
| GCATGGGCAG | 0.999 ± 0.023 |
| GCATGGGTAC | 1.05 ± 0.018 |
| GCATGGTGAC | 1.058 ± 0.0028 |
| GCATGGTTAA | 1.019 ± 0.0023 |
| GCATGGTTAT | 0.993 ± 0.036 |
| GCATGTCGTT | 1.001 ± 0.0047 |
| GCATGTTAGG | 1.01 ± 0.063 |
| GCATTAGGGT | 1.02 ± 0.014 |
| GCATTATCTA | 1.01 ± 0.07 |

| Sequence | switch fluorescence ratio |
| --- | --- |
| GCATTATTGG | 0.998 ± 0.016 |
| GCATTCAATG | 1.01 ± 0.024 |
| GCATTCGATG | 0.981 ± 0.013 |
| GCATTTAAGT | 0.993 ± 0.06 |
| GCATTTGATG | 1.0205 ± 0.00084 |
| GCATTTTAGG | 0.967 ± 0.045 |
| GCATTTTATT | 0.9938 ± 0.0026 |
| GCCAACGCTG | 1.1 ± 0.046 |
| GCCAATGATC | 1.01 ± 0.073 |
| GCCAGAGAGT | 1.01 ± 0.012 |
| GCCAGCATAT | 1.153 ± 0.0062 |
| GCCAGGATTG | 1.02 ± 0.013 |
| GCCAGGCTGG | 1.04 ± 0.021 |
| GCCAGGGAGG | 1.03 ± 0.026 |
| GCCAGTCTGG | 0.987 ± 0.025 |
| GCCAGTGTTT | 1.02 ± 0.056 |
| GCCATAATAT | 1.01 ± 0.023 |
| GCCATAGCTG | 1.007 ± 0.0029 |
| GCCATATTTC | 0.998 ± 0.041 |
| GCCATCCTGC | 1.05 ± 0.042 |
| GCCATGGACA | 0.9847 ± 0.00086 |
| GCCATTGTTG | 0.998 ± 0.018 |
| GCCATTTTGA | 0.956 ± 0.037 |

| Sequence | switch fluorescence ratio |
| --- | --- |
| GCCCAAGGA | 1.028 ± 0.0062 |
| GCCCATGAGT | 1.01 ± 0.011 |
| GCCCCCCACA | 1.1 ± 0.048 |
| GCCCGCAGAA | 1.76 ± 0.024 |
| GCCCGCCCGC | 1.38 ± 0.18 |
| GCCCGCTAAT | 2.25 ± 0.052 |
| GCCCGGGAGC | 1 ± 0.037 |
| GCCCGGGGAC | 1.18 ± 0.12 |
| GCCCTGGAAC | 1.01 ± 0.022 |
| GCCCTGGTGT | 5.93 ± 0.54 |
| GCCGAAGCTG | 1.08 ± 0.003 |
| GCCGAGTTTC | 1.02 ± 0.014 |
| GCCGCCTGAT | 0.986 ± 0.021 |
| GCCGCGTGCG | 1.06 ± 0.024 |
| GCCGCTGGGA | 1.01 ± 0.022 |
| GCCGCTGTCG | 0.963 ± 0.045 |
| GCCGGAAAGG | 0.9857 ± 0.0075 |
| GCCGGAGTTA | 1.06 ± 0.017 |
| GCCGGATTGC | 1.07 ± 0.033 |
| GCCGGGACCG | 1.024 ± 0.01 |
| GCCGGGACGG | 0.965 ± 0.022 |
| GCCGGGATGC | 1.1 ± 0.11 |
| GCCGGGGGTA | 1.04 ± 0.079 |

| Sequence | switch fluorescence ratio |
| --- | --- |
| GCCGGGTCCG | 0.9938 ± 0.0011 |
| GCCGGTCTGT | 1.01 ± 0.03 |
| GCCGGTGGAT | 0.9793 ± 0.0084 |
| GCCGGTGTTT | 1.02 ± 0.036 |
| GCCGTAAGGA | 1.06 ± 0.033 |
| GCCGTAGCTC | 1.2 ± 0.078 |
| GCCGTAGTAA | 1.68 ± 0.011 |
| GCCGTATGG | 0.997 ± 0.012 |
| GCCGTCGGCA | 1 ± 0.017 |
| GCCGTCTGCG | 0.957 ± 0.011 |
| GCCGTGAGAG | 0.9842 ± 0.0013 |
| GCCGTGGAGA | 1.03 ± 0.021 |
| GCCGTTAGCG | 1.02 ± 0.049 |
| GCCGTTGGAA | 1.01 ± 0.024 |
| GCCGTTTTAC | 1.17 ± 0.05 |
| GCCTAAAGTT | 0.988 ± 0.015 |
| GCCTAGGCGG | 1.01 ± 0.062 |
| GCCTCACCCG | 1.26 ± 0.016 |
| GCCTCTATTT | 0.968 ± 0.019 |
| GCCTGCGGGG | 1.04 ± 0.046 |
| GCCTGTTGCA | 0.9709 ± 0.0037 |
| GCCTTAATCT | 1.01 ± 0.038 |
| GCCTTAGCTC | 1.04 ± 0.015 |

| Sequence | switch fluorescence ratio |
| --- | --- |
| GCCTTCATGG | 0.98 ± 0.044 |
| GCCTTCCCGG | 1.9 ± 0.08 |
| GCCTTCCGTT | 1.39 ± 0.49 |
| GCCTTCGACT | 1.051 ± 0.0017 |
| GCCTTGGACT | 0.976 ± 0.027 |
| GCCTTGTATG | 0.976 ± 0.03 |
| GCCTTTGCAT | 1.04 ± 0.039 |
| GCCTTTTCGA | 0.9827 ± 0.0025 |
| GCCTTTTGCC | 1.044 ± 0.0094 |
| GCGAAAAAAG | 0.99907 ± 0.00052 |
| GCGAAAAACG | 1.03 ± 0.056 |
| GCGAAAGGAA | 1.12 ± 0.14 |
| GCGAAAGGCT | 1.03 ± 0.024 |
| GCGAAAGTCG | 1.018 ± 0.0069 |
| GCGAAATTAA | 0.997 ± 0.018 |
| GCGAACAACT | 1.014 ± 0.0087 |
| GCGAAGGGGT | 1.02 ± 0.031 |
| GCGAATAAGT | 1.02 ± 0.031 |
| GCGAATATCC | 1.11 ± 0.017 |
| GCGACAAAAT | 1.11 ± 0.047 |
| GCGAGAATAG | 1 ± 0.014 |
| GCGAGCAATG | 1.03 ± 0.027 |
| GCGAGCCTCC | 1.3 ± 0.052 |

| Sequence | switch fluorescence ratio |
| --- | --- |
| GCGAGGAGTA | 1.01 ± 0.024 |
| GCGAGGCCGT | 1 ± 0.056 |
| GCGAGGGAGT | 1.02 ± 0.037 |
| GCGAGGGGTT | 0.969 ± 0.035 |
| GCGAGGGTCG | 1.01 ± 0.043 |
| GCGAGGTAGG | 0.9669 ± 0.0043 |
| GCGAGGTCGG | 1.03 ± 0.07 |
| GCGAGGTGGG | 0.999 ± 0.049 |
| GCGATAGACG | 0.99 ± 0.022 |
| GCGATCGGTT | 1.01 ± 0.049 |
| GCGATGGGTC | 1.06 ± 0.0091 |
| GCGATTAAAG | 1 ± 0.014 |
| GCGATTTGTG | 1.01 ± 0.037 |
| GCGCAAATCG | 1.009 ± 0.01 |
| GCGCAAATTT | 0.999 ± 0.017 |
| GCGCACCTTT | 1.01 ± 0.029 |
| GCGCATGGTA | 1.02 ± 0.026 |
| GCGCCTAGGG | 0.999 ± 0.018 |
| GCGCGATATT | 2.17 ± 0.21 |
| GCGCGCACAT | 1.01 ± 0.048 |
| GCGCGGGGCC | 0.999 ± 0.032 |
| GCGCGGGGTA | 0.997 ± 0.029 |
| GCGCTATATG | 1.16 ± 0.049 |

| Sequence | switch fluorescence ratio |
| --- | --- |
| GCGCTGTCCG | 0.9959 ± 0.0087 |
| GCGCTTAAGT | 0.986 ± 0.043 |
| GCGGAAAAAG | 0.957 ± 0.011 |
| GCGGAACGTG | 0.997 ± 0.04 |
| GCGGAGAGAT | 1.27 ± 0.33 |
| GCGGAGAGTT | 1.01 ± 0.019 |
| GCGGAGTCGG | 0.996 ± 0.053 |
| GCGGATCAGC | 1.01 ± 0.059 |
| GCGGATTGTG | 1.032 ± 0.0053 |
| GCGGCAAAAT | 1.01 ± 0.041 |
| GCGGCAGGGC | 1.05 ± 0.017 |
| GCGGCATGGT | 0.985 ± 0.0093 |
| GCGGCCGTTG | 0.965 ± 0.064 |
| GCGGCGGCGT | 1.002 ± 0.0023 |
| GCGGCTGTCG | 0.948 ± 0.085 |
| GCGGCTTAAC | 1.02 ± 0.022 |
| GCGGGACTGG | 1.04 ± 0.034 |
| GCGGGATGTC | 0.972 ± 0.02 |
| GCGGGCCCTT | 1.01 ± 0.012 |
